Assay [1] deals with human FGFR2b (beta)-Fc, human Fc fusion (human). The assay is described as follows: SPR (Biacore T200), hFGFR2b-Fc amine-coupled to a CM5 chip, antibody injected at 0-200 nM. (Surface plasmon resonance follows binding to a sensor surface in real time, without labels.)
Assay [2] concerns the target recombinant human FGFR1b-Fc (R&D Systems) (human) (UniProt P11362). The assay is described as follows: SPR (Biacore T200), hFGFR1b-Fc amine-coupled to CM5 chip, antibody injected.
The target is the same in assay [3]. The assay is described as follows: SPR (Biacore T200), hFGFR1b-Fc amine-coupled to a CM5 chip, antibody injected at 0-200 nM.

For orientation: Kd means the free concentration of one partner at which half of the binding sites on the other are occupied at equilibrium, for simple one-to-one binding. A word on the koff: it is the first-order rate constant of dissociation. For orientation: kon means a measure of how fast the partners come together.

Chain of recombinant human FGFR1b-Fc (R&D Systems) (human) (P11362 other isoform, or with tags, fused parts or gaps limits assumed): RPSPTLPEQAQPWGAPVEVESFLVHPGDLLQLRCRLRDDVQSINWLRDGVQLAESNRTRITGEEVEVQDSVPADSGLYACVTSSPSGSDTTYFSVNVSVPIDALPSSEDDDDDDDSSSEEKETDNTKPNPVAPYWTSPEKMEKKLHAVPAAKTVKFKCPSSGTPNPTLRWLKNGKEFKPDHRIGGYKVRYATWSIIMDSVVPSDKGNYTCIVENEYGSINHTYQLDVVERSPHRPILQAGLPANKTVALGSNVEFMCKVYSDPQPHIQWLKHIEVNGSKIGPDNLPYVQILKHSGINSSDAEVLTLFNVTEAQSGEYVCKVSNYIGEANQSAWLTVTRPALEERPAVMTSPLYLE

B1: FPA144 (clinical stage anti-human FGFR2b specific antibody) (antibody, INN chains, looked up, V domains shown)
VH: QVQLVQSGAEVKKPGSSVKVSCKASGYIFTTYNVHWVRQAPGQGLEWIGSIYPDNGDTSYNQNFKGRATITADKSTSTAYMELSSLRSEDTAVYYCARGDFAYWGQGTLVTVSS
VL: DIQMTQSPSSLSASVGDRVTITCKASQGVSNDVAWYQQKPGKAPKLLIYSASYRYTGVPSRFSGSGSGTDFTFTISSLQPEDIATYYCQQHSTTPYTFGQGTKLEIK
B1: the Kd is 0.75 nM in assay [1] and 225 nM in assay [2]. Further, the figures for the koff in assay [1] and in assay [3] were 7.77e-05 s⁻¹ and 0.00746 s⁻¹, respectively. Further, the kon came to 104000 M⁻¹ s⁻¹ in assay [1] and 33200 M⁻¹ s⁻¹ in assay [3].

(Values after patent US20230052256A1.)
